This note sets out measurements from article PMC2699591.

The target of this assay is GST-LB3-coil2 (Xenopus). The assay is described as follows: biosensor binding studies.

On to “6His-tagged full-length Nudel (6His-Nudel, 1-345 aa) (natural protein)”, for which the Kd (in general, the concentration at which binding is half-saturated) is 50 µM.
